These sequences were tested against SHP2-C SH2 (assay: SH2 binding enrichment of the phosphorylated peptide, bacterial display (enrichment ratio); higher = better substrate or ligand; peptides without Tyr show the background).
Work on EDDIIYTQDFT [STK11_Y362] yielded an SH2 binding enrichment of 0.734. LDAGEYCVPRG [BEX1_Y43] gave an SH2 binding enrichment of 0.715. Sequence NKEAIYSGFIR [SMCHD1_Y283_YF] has an SH2 binding enrichment of 0.636. With IATAIYSGDKI [UGGT2_Y823] the SH2 binding enrichment was 0.674. GPKFGYDEIDN [ACOX1_Y232] showed an SH2 binding enrichment of 0.658. INSLKYAFNIS [EIF2B5_Y583_YF] gave an SH2 binding enrichment of 0.833. HSREDYFECFQ [ZIM2_Y411_Q408R] showed an SH2 binding enrichment of 0.766. Work on PRLMLYNPTTY [EGFR_Y270_P266R] yielded an SH2 binding enrichment of 1.14. In the case of FPPTHYIRRVP [SLC4A11_Y820_YF], the SH2 binding enrichment is reported as 0.746. ATVRPYRPYII [LRP5_Y1528_A1525V] showed an SH2 binding enrichment of 0.657. Sequence PLFKICVAELI [MRPL28_Y230_Y230C] has an SH2 binding enrichment of 0.829. FEREQYADRTR [RBM4_Y355_A359T_YF] was tested, and the SH2 binding enrichment was 0.694. PPAPRYHHSAV [LZTR1_Y119] gave an SH2 binding enrichment of 1.1. TLNHQYDYTFH [CSNK1A1_Y292_D297H] showed an SH2 binding enrichment of 0.874. KDFNKYVAYIE [KDM4B_Y31] gave an SH2 binding enrichment of 1.14. SDVDLYQVRTA [PSMD9_Y70] gave an SH2 binding enrichment of 0.599. In the case of DVRQEYSGMIL [PLXND1_Y616_P617S], the SH2 binding enrichment is reported as 0.39. DENWFYTRPAS [RPS19_Y54_A57P] gave an SH2 binding enrichment of 0.672. For HPWPRYTTRAP [FNDC1_Y1281_Q1280R], the SH2 binding enrichment was 0.643. Sequence TFGQVYKGPHV [TNIK_Y40_R43P_YF] has an SH2 binding enrichment of 0.531. Work on LLVVVYKFRCF [PSEN1_Y154_L153V_YF] yielded an SH2 binding enrichment of 1.64. Work on QQLDEYQELLD [LMNA_Y359] yielded an SH2 binding enrichment of 0.55. Work on RVKTPYSLKRW [BMPR2_Y979] yielded an SH2 binding enrichment of 3.37. ADRTRYSAFGG [RBM4_Y361_A359T] gave an SH2 binding enrichment of 1.08. For ADEEYYEIIAA [FEStide_no-pY_2014], the SH2 binding enrichment was 0.647. TKDTFYKQPMV [GBA_Y451_F456V] showed an SH2 binding enrichment of 0.689. For TENAGYYFRIS, the SH2 binding enrichment was 0.801. FHKALYTVRSF [PDE6C_Y266_YF] showed an SH2 binding enrichment of 0.648. Sequence DMLTLYVNTAA [SMCHD1_Y403_Q400L] has an SH2 binding enrichment of 0.993.

The sequences below were run against c-Src SH2 in the same assay as above.
EDDIIYTQDFT [STK11_Y362] gave an SH2 binding enrichment of 0.554. LDAGEYCVPRG [BEX1_Y43] showed an SH2 binding enrichment of 0.453. For NKEAIYSGFIR [SMCHD1_Y283_YF], the SH2 binding enrichment was 0.392. For IATAIYSGDKI [UGGT2_Y823], the SH2 binding enrichment was 0.393. GPKFGYDEIDN [ACOX1_Y232] showed an SH2 binding enrichment of 16.7. INSLKYAFNIS [EIF2B5_Y583_YF] was tested, and the SH2 binding enrichment was 0.44. HSREDYFECFQ [ZIM2_Y411_Q408R] showed an SH2 binding enrichment of 0.557. PRLMLYNPTTY [EGFR_Y270_P266R] was tested, and the SH2 binding enrichment was 0.686. FPPTHYIRRVP [SLC4A11_Y820_YF] was tested, and the SH2 binding enrichment was 0.374. Work on ATVRPYRPYII [LRP5_Y1528_A1525V] yielded an SH2 binding enrichment of 0.482. Sequence PLFKICVAELI [MRPL28_Y230_Y230C] has an SH2 binding enrichment of 0.496. For FEREQYADRTR [RBM4_Y355_A359T_YF], the SH2 binding enrichment was 0.539. PPAPRYHHSAV [LZTR1_Y119] was tested, and the SH2 binding enrichment was 1.07. With TLNHQYDYTFH [CSNK1A1_Y292_D297H] the SH2 binding enrichment was 7.34. For KDFNKYVAYIE [KDM4B_Y31], the SH2 binding enrichment was 0.927. With SDVDLYQVRTA [PSMD9_Y70] the SH2 binding enrichment was 0.444. Sequence DVRQEYSGMIL [PLXND1_Y616_P617S] has an SH2 binding enrichment of 0.536. Work on DENWFYTRPAS [RPS19_Y54_A57P] yielded an SH2 binding enrichment of 1.01. In the case of HPWPRYTTRAP [FNDC1_Y1281_Q1280R], the SH2 binding enrichment is reported as 0.434. With TFGQVYKGPHV [TNIK_Y40_R43P_YF] the SH2 binding enrichment was 0.413. LLVVVYKFRCF [PSEN1_Y154_L153V_YF] showed an SH2 binding enrichment of 1.41. QQLDEYQELLD [LMNA_Y359] gave an SH2 binding enrichment of 0.452. With RVKTPYSLKRW [BMPR2_Y979] the SH2 binding enrichment was 2.06. ADRTRYSAFGG [RBM4_Y361_A359T] showed an SH2 binding enrichment of 0.617. With ADEEYYEIIAA [FEStide_no-pY_2014] the SH2 binding enrichment was 1.01. Work on TKDTFYKQPMV [GBA_Y451_F456V] yielded an SH2 binding enrichment of 0.403. Work on TENAGYYFRIS yielded an SH2 binding enrichment of 0.736. FHKALYTVRSF [PDE6C_Y266_YF] gave an SH2 binding enrichment of 0.459. In the case of DMLTLYVNTAA [SMCHD1_Y403_Q400L], the SH2 binding enrichment is reported as 0.646.
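Further: peptide library displayed on the E. coli surface as eCPX fusions, selected cells deep-sequenced, score is each peptide's frequency after selection divided by its frequency in the input.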
